# In PMC11344481 (Journal of proteome research, 2024):
# Legend:
# [1] = molecular target: malate dehydrogenase (human (endogenous in heart tissue)) (UniProt P40925); assay: native MS
# native MS = molecular target: the molecule itself; assay: native MS
# malate dehydrogenase, sequence (P40925 whole entry): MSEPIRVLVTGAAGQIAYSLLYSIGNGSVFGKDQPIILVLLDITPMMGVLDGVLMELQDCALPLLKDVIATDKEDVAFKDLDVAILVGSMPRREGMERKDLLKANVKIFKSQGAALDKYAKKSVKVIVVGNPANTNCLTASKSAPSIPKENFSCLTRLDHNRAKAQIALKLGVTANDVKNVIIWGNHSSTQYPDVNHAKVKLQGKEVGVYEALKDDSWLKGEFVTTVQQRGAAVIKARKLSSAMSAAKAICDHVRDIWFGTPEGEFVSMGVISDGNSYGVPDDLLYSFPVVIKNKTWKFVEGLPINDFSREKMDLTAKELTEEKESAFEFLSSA
Molecule,stoichiometry N [1],stoichiometry N (native MS)
malate dehydrogenase (from UniProt P40925 1-334) (enzyme),2,–
"S100-A1 (natural protein, human (endogenous in heart tissue), UniProt P23297 2-94, looked up, N-terminal methionine removed and N-terminus acetylated (primary proteoform)) GSELETAMETLINVFHAHSGKEGDKYKLSKKELKELLQTELSGFLDAQKDVDAVDKVMKELDENGDGEVDFQEYVVLVAALTVACNNFFWENS",–,2
